# Measurements reported in paper doi:10.1101/2025.06.20.660723.
# Target: Lhcb2 of Posidonia oceanica, threonine-phosphorylated (Posidonia oceanica (endogenous in leaves))
substance,measurement,value
Lhcb1 of Posidonia oceanica (natural protein),stoichiometry N (Lhcb1 per Lhcb2),2
